Consider one molecule from WO2018223004A1 (dated 2018).

The target in this test is T1, human CD20 (B-lymphocyte antigen CD20) (human, UniProt P11836 1-297).
T1 sequence (looked up): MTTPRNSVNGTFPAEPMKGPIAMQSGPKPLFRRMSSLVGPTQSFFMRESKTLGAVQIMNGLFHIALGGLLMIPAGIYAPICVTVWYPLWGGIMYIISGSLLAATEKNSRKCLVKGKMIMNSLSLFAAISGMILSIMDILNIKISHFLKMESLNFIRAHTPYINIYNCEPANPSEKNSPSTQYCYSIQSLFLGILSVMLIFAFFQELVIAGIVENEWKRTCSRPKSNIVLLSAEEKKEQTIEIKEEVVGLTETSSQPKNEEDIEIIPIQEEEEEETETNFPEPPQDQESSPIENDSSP
The experiment in a line: cell-based or functional assay.

B1: XmAb13676 Anti-CD20 x Anti-CD3 Fab-scFv-Fc bispecific antibody (bispecific antibody)
heavy: QVQLVQSGAEVKKPGASVKVSCKASGYTFTSYNMHWVRQAPGQGLEWMGAIYPGNGDTSYNQKFQGRVTITADKSISTAYMELSSLRSEDTAVYYCARSTYYGGDWYFNVWGAGTLVTVSSASTKGPSVFPLAPSSKSTSGGTAALGCLVKDYFPEPVTVSWNSGALTSGVHTFPAVLQSSGLYSLSSVVTVPSSSLGTQTYICNVNHKPSDTKVDKKVEPKSCDKTHTCPPCPAPPVAGPSVFLFPPKPKDTLMISRTPEVTCVVVDVKHEDPEVKFNWYVDGVEVHNAKTKPREEEYNSTYRVVSVLTVLHQDWLNGKEYKCKVSNKALPAPIEKTISKAKGQPREPQVYTLPPSREEMTKNQVSLTCDVSGFYPSDIAVEWESDGQPENNYKTTPPVLDSDGSFFLYSKLTVDKSRWEQGDVFSCSVMHEALHNHYTQKSLSLSPGK
scFv: not shown
light: QIVLTQSPSSLSASVGDRVTITCRASSSVSYIHWFQQKPGKSPKPLIYATSNLASGVPVRFSGSGSGTDYTLTISSLQPEDFATYYCQQWTSNPPTFGGGTKVEIKRTVAAPSVFIFPPSDEQLKSGTASVVCLLNNFYPREAKVQWKVDNALQSGNSQESVTEQDSKDSTYSLSSTLTLSKADYEKHKVYACEVTHQGLSSPVTKSFNRGEC
As for B1, the “EC50 of Jeko-1 target cell killing in the absence of rituximab” value is 0.024 µg/mL, the “EC50 of Jeko-1 target cell killing with 3 μg/ml rituximab” value was determined as 0.051 µg/mL, the “EC50 of Jeko-1 target cell killing with 10 μg/ml rituximab” value was determined as 0.093 µg/mL and the “EC50 of Jeko-1 target cell killing with 30 μg/ml rituximab” value was determined as 0.162 µg/mL. The “EC50 of Jeko-1 target cell killing with 100 μg/ml rituximab” value stood at 0.387 µg/mL, the “EC50 of RTCC against Ramos cells with purified T cells from six healthy donors” value lay in the range of 0.0053 to 0.0143 µg/mL and the “potency of killing of SC-1 against the cell lines with high or intermediate CD20 levels” value was around 10 fold.
